The source of these data is paper PMC4840434, “The interactome of Streptococcus pneumoniae and its bacteriophages show highly specific patterns of interactions among bacteria and their phages” (Scientific Reports, 2016).

Common to all, as to assay: pull-down; LuMPIS: N-terminally MBP-tagged bait pulled down on amylose beads, N-terminally eGFP-luciferase-tagged prey detected by luciferase activity; both expressed in HEK cells, raw protein extracts; quadruplicates; LIR against MBP without ORF
For test [1], the target named is Dp-1 orf58, Holin (LuMPIS construct) (phage Dp-1 of S. pneumoniae).
Test [2] concerns the target Dp-1 orf72, Membrane protein (LuMPIS construct) (phage Dp-1 of S. pneumoniae).
Test [3] addresses T1, Cp-1 Cpl1, Lysozyme (LuMPIS construct) (phage Cp-1 of S. pneumoniae, UniProt P15057 1-339).
T1 construct: Cpl1 lysozyme of phage Cp-1; ORF in a Gateway LuMPIS vector; source: HEK cells, raw protein extract
T1 sequence: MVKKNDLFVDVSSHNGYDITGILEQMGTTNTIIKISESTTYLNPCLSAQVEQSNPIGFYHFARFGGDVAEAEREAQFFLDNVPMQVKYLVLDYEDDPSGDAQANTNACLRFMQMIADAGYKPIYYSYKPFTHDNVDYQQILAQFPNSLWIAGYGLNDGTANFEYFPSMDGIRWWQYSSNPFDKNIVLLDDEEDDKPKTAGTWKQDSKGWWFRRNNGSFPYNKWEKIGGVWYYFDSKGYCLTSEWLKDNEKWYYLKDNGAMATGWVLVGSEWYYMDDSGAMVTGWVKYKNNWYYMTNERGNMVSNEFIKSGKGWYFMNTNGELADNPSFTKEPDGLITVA
The note with it: partners not purified.

Consider “SP_1606, glycosyl transferase, family 2 (LuMPIS construct) (from UniProt A0A0H2UQY5 1-320) (natural protein)”, for which the LIR (luminescence intensity ratio against MBP alone) in test [1] stood at 3; in test [2] it was 50.

B1: SP_1208, uridine kinase (LuMPIS construct) (natural protein, S. pneumoniae TIGR4, UniProt P67413 1-212, looked up)
chain: MQNRPIIIGVTGGSGGGKTSVSRAILSHFPDEKISMIEHDSYYKDQSHLTFEERVKTNYDHPFAFDTDLMIEQIKELLAGRPVDIPTYDYTEHTRSSKTYRQEPQDVFIVEGILVLEDKRLRDLMDIKIFVDTDDDVRIIRRIKRDMEERGRSLDSVINQYLGVVKPMYHQFIESTKRYADIVIPEGVSNTVAIDLLTTKIAKILEEARNSK
notes: SP_1208 uridine kinase, S. pneumoniae TIGR4; ORF in a Gateway LuMPIS vector; source: HEK cells, raw protein extract
Take B1: the “LIR (luminescence intensity ratio against MBP alone)” value in test [3] was 4.
